Results reported in US20190015483A1 (CSL BEHRING RECOMBINANT FACILITY, published 2019).
Numbering of substitutions follows the chain as printed. Names may count otherwise.

T1: recombinant Factor VIII (CSL627, rVIII-SingleChain) (Homo sapiens (Human), UniProt P00451 20-2351)
T1 construct: also called FVIII
T1 sequence: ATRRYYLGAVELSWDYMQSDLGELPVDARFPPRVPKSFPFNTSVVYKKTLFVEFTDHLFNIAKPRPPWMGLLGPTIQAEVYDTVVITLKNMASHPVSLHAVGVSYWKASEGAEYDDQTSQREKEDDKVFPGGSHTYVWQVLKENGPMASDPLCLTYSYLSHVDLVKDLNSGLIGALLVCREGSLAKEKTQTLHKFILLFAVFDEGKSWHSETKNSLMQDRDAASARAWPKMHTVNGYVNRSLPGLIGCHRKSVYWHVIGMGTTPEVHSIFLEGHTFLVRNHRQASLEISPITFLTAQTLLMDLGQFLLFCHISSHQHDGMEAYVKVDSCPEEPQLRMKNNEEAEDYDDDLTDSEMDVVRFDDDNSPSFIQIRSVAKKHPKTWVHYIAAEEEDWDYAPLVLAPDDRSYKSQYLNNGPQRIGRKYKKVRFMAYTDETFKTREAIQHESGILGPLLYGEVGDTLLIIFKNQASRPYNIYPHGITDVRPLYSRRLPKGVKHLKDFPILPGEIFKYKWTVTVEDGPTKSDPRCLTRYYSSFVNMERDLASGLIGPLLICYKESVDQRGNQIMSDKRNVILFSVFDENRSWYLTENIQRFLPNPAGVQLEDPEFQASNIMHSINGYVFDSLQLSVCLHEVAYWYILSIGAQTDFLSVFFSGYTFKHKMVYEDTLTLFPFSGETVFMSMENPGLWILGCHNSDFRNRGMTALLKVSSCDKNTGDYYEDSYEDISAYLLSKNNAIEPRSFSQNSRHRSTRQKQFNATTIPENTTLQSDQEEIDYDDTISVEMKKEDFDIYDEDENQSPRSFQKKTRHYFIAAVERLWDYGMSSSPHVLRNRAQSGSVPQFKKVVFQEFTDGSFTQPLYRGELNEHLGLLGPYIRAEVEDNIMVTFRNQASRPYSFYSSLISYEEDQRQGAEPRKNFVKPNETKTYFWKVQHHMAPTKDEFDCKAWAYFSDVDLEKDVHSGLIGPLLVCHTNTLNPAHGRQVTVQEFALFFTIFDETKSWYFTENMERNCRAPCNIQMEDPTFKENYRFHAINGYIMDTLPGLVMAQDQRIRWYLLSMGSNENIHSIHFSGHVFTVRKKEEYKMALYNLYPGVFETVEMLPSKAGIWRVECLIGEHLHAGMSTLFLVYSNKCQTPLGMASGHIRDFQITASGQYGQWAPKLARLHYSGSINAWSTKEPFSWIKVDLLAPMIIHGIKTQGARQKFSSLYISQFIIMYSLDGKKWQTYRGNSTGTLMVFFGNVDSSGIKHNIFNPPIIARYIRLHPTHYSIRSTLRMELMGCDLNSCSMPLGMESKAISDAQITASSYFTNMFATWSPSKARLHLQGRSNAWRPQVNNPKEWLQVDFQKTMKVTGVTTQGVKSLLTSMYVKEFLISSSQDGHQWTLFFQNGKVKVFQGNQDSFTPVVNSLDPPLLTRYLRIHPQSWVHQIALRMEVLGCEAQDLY

B1: Hu-vWF[764-1270]-8His S764P-L765E-S766I (other)
chain: PEICRPPMVKLVCPADNLRAEGLECTKTCQNYDLECMSMGCVSGCLCPPGMVRHENRCVALERCPCFHQGKEYAPGETVKIGCNTCVCRDRKWNCTDHVCDATCSTIGMAHYLTFDGLKYLFPGECQYVLVQDYCGSNPGTFRILVGNKGCSHPSVKCKKRVTILVEGGEIELFDGEVNVKRPMKDETHFEVVESGRYIILLLGKALSVVWDRHLSISVVLKQTYQEKVCGLCGNFDGIQNNDLTSSNLQVEEDPVDFGNSWKVSSQCADTRKVPLDSSPATCHNNIMKQTMVDSSCRILTSDVFQDCNKLVDPEPYLDVCIYDTCSCESIGDCACFCDTIAAYAHVCAQHGKVVTWRTATLCPQSCEERNLRENGYECEWRYNSCAPACQVTCQHPEPLACPVQCVEGCHAHCPPGKILDELLQTCVDPEDCPVCEVAGRRFASGKKVTLNPSDPEHCQICHCDVVNLTCEACQEPGGLVVPPTDAPVSPTTLYVEDISEPPLHDFHHHHHHHH
B2: Hu-vWF[764-1270]-8His S766W-L809F (other)
chain: B1 chain with P1S, E2L, I3W, L46F
B3: Hu-vWF[764-1270]-8His S766W-L809T (other)
chain: B1 chain with P1S, E2L, I3W, L46T
B4: Hu-vWF[764-1270]-8His S764P-L765K-S766I (other)
chain: B1 chain with E2K
B5: Hu-vWF[764-1270]-8His S766W-S806A (other)
chain: B1 chain with P1S, E2L, I3W, S43A
B6: Hu-vWF[764-1270]-8His S764P-L765H-S766I (other)
chain: B1 chain with E2H
B7: Hu-vWF[764-1270]-8His S766W-L809E (other)
chain: B1 chain with P1S, E2L, I3W, L46E
B8: Hu-vWF[764-1270]-8His S766W-L809H (other)
chain: B1 chain with P1S, E2L, I3W, L46H
B9: Hu-vWF[764-1270]-8His S766W-L809V (other)
chain: B1 chain with P1S, E2L, I3W, L46V
B10: Hu-vWF[764-1270]-8His S766W-L809P (other)
chain: B1 chain with P1S, E2L, I3W, L46P
B11: Hu-vWF[764-1270]-8His S766W-L809D (other)
chain: B1 chain with P1S, E2L, I3W, L46D
B12: Hu-vWF[764-1270]-8His S764P-L765Y-S766I (other)
chain: B1 chain with E2Y
B13: Hu-vWF[764-1270]-8His S766W-L809R (other)
chain: B1 chain with P1S, E2L, I3W, L46R
B14: Hu-vWF[764-1270]-8His S764P-L765V-S766I (other)
chain: B1 chain with E2V
B15: Hu-vWF[764-1270]-8His S766W-S806D (other)
chain: B1 chain with P1S, E2L, I3W, S43D
B16: Hu-vWF[764-1270]-8His S764P-L765W-S766I (other)
chain: B1 chain with E2W
B17: Hu-vWF[764-1270]-8His S766W-L809Y (other)
chain: B1 chain with P1S, E2L, I3W, L46Y
B18: Hu-vWF[764-1270]-8His S766W-S806E (other)
chain: B1 chain with P1S, E2L, I3W, S43E
B19: Hu-vWF[764-1270]-8His S766W-L809G (other)
chain: B1 chain with P1S, E2L, I3W, L46G
B20: Hu-vWF[764-1270]-8His S766W-L809Q (other)
chain: B1 chain with P1S, E2L, I3W, L46Q
B21: Hu-vWF[764-1270]-8His S764P-L765G-S766I (other)
chain: B1 chain with E2G
B22: Hu-vWF[764-1270]-8His S766W-L809A (other)
chain: B1 chain with P1S, E2L, I3W, L46A
B23: Hu-vWF[764-1270]-8His S764P-L765Q-S766I (other)
chain: B1 chain with E2Q
B24: Hu-vWF[764-1270]-8His S764P-L765M-S766I (other)
chain: B1 chain with E2M
B25: Hu-vWF[764-1270]-8His S766W-L809K (other)
chain: B1 chain with P1S, E2L, I3W, L46K
B26: Hu-vWF[764-1270]-8His S764P-L765T-S766I (other)
chain: B1 chain with E2T
B27: Hu-vWF[764-1270]-8His S766W-L809W (other)
chain: B1 chain with P1S, E2L, I3W, L46W
B28: Hu-vWF[764-1270]-8His S766W-L809I (other)
chain: B1 chain with P1S, E2L, I3W, L46I
B29: Hu-vWF[764-1270]-8His S766W-L809M (other)
chain: B1 chain with P1S, E2L, I3W, L46M
B30: Hu-vWF[764-1270]-8His S764P-L765R-S766I (other)
chain: B1 chain with E2R
B31: Hu-vWF[764-1270]-8His S766W-L809N (other)
chain: B1 chain with P1S, E2L, I3W, L46N
B32: Hu-vWF[764-1270]-8His S764P-L765I-S766I (other)
chain: B1 chain with E2I
B33: Hu-vWF[764-1270]-8His S766W-L809S (other)
chain: B1 chain with P1S, E2L, I3W, L46S

Molecular target: T1, recombinant Factor VIII (CSL627, …)
Assay: SPR, anti-His capture, FVIII injected, 37 C
Description: Binding kinetics were investigated by surface plasmon resonance using a Biacore 4000 biosensor at 37° C. Each mutant was captured from cell culture medium to a density of 40-150 RU on a CM-5 sensor chip pre-immobilised with anti-His antibody (14,000 RU). In an initial screening study, FVIII was injected over the captured mutants for 5 minutes at 1 nM and dissociation monitored for 5 minutes.
All sensorgrams were double referenced by subtraction of signals from a reference spot (containing only immobilised anti His antibody) and from a blank injection. Binding kinetics were determined by fitting the double referenced sensorgrams to a 1:1 kinetic model.

Row | Binder | Kd [nM] | koff [s⁻¹] | kon [M⁻¹ s⁻¹] | binding result
1 | B1 | 53.6 | 0.055 | 1.03e+06 | 
2 | B2 | 0.228 | 0.000744 | 3.26e+06 | 
3 | B3 | 0.161 | 0.00141 | 8.72e+06 | 
4 | B4 | 0.0218 | 0.0015 | 6.88e+07 | 
5 | B5 | 0.0778 | 0.000376 | 4.84e+06 | 
6 | B6 | 0.0424 | 6.6e-05 | 1.56e+06 | 
7 | B7 | 0.265 | 0.00155 | 5.84e+06 | 
8 | B8 | 0.397 | 0.00114 | 2.87e+06 | 
9 | B9 | 0.122 | 0.00094 | 7.7e+06 | 
10 | B10 |  |  |  | no binding
11 | B11 | 0.425 | 0.0019 | 4.46e+06 | 
12 | B12 | 0.0367 | 0.0019 | 5.17e+07 | 
13 | B13 | 0.352 | 0.00213 | 6.07e+06 | 
14 | B14 | 0.00207 | 0.000116 | 5.62e+07 | 
15 | B15 | 0.164 | 0.000688 | 4.2e+06 | 
16 | B16 | 0.132 | 0.000146 | 1.11e+06 | 
17 | B17 | 0.5 | 0.00339 | 6.77e+06 | 

Row | Binder | Kd [nM] | koff [s⁻¹] | kon [M⁻¹ s⁻¹] | binding result
18 | B18 | 0.217 | 0.00129 | 5.93e+06 | 
19 | B19 | 0.363 | 0.00226 | 6.21e+06 | 
20 | B20 | 0.212 | 0.00113 | 5.33e+06 | 
21 | B21 | 0.241 | 0.0122 | 5.04e+07 | 
22 | B22 | 0.258 | 0.00115 | 4.45e+06 | 
23 | B23 | 0.248 | 0.000286 | 1.15e+06 | 
24 | B24 | 0.00241 | 0.000137 | 5.69e+07 | 
25 | B25 | 0.219 | 0.00153 | 7e+06 | 
26 | B26 | 0.0287 | 0.00331 | 1.15e+08 | 
27 | B27 | 0.648 | 0.00312 | 4.81e+06 | 
28 | B28 | 0.103 | 0.000541 | 5.23e+06 | 
29 | B29 | 0.117 | 0.000581 | 4.99e+06 | 
30 | B30 | 0.218 | 0.0173 | 7.96e+07 | 
31 | B31 | 0.369 | 0.00227 | 6.15e+06 | 
32 | B32 | 1.62 | 0.0103 | 6.34e+06 | 
33 | B33 | 0.22 | 0.00144 | 6.54e+06 | 
